Data taken from paper PMC7815066 (Chem, 2021).

Legend:
[1] = biological target: E. coli bo3 oxidase (E. coli); test: mass photometry
[2] = biological target: E. coli bo3 oxidase (E. coli); test: SEC-MALS
[3] = biological target: T1, Streptomyces lividans potassium channel KcsA (Streptomyces lividans), P0A334; test: mass photometry; conditions: remark: other sources report otherwise
T1 chain: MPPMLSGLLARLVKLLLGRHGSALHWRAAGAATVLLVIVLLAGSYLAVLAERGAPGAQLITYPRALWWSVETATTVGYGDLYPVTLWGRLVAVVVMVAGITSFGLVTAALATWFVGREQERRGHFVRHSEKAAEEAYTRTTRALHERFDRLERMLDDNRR

[4] = biological target: T1, Streptomyces lividans potassium channel …; test: mass photometry; conditions: remark: other sources report otherwise
[5] = biological target: the molecule itself; test: mass photometry

Molecule: E. coli bo3 oxidase (complex)
- relative abundance of dimers [1]: 20%
- stoichiometry N [1]: 2
- relative abundance of dimers [2]: 28%
- relative abundance of monomers [2]: 72%
- stoichiometry N [2]: 2

B1: Streptomyces lividans potassium channel KcsA, P0A334 1-160 (natural protein)
chain: T1 chain
- stoichiometry N [3]: 4
- stoichiometry N [4]: 4

B2: E. coli outer membrane protein F (natural protein)
chain: AEIYNKDGNKVDLYGKAVGLHYFSKGNGENSYGGNGDMTYARLGFKGETQINSDLTGYGQWEYNFQGNNSEGADAQTGNKTRLAFAGLKYADVGSFDYGRNYGVVYDALGYTDMLPEFGGDTAYSDDFFVGRVGGVATYRNSNFFGLVDGLNFAVQYLGKNERDTARRSNGDGVGGSISYEYEGFGIVGAYGAADRTNLQEAQPLGNGKKAEQWATGLKYDANNIYLAANYGETRNATPITNKFTNTSGFANKTQDVLLVAQYQFDFGLRPSIAYTKSKAKDVEGIGDVDLVNYFEVGATYYFNKNMSTYVDYIINQIDSDNKLGVGSDDTVAVGIVYQF
- stoichiometry N [5]: 3
